± gives the uncertainty stated by the source.
Experiment: amyloid nucleation score (Sup35N fusion, yeast selection) (log enrichment); library NNK1; higher = more nucleation; inactive = no reads after selection
Summary of the method: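 The nucleation score is a DiMSum log enrichment of output over input reads, centred on the mode score of non-aggregating sequences. Sequences under 100 input reads were excluded, and reads came from Illumina sequencing of plasmid inserts. Psi-negative yeast expressing Sup35N fused to peptides of 20 random codons were induced with 100 μM copper sulfate for 24 hours and grown 7 days at 30°C on medium lacking adenine and uracil. Random libraries had three technical output replicates.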

| Substance | amyloid nucleation score |
| --- | --- |
| GGYWWQDRRHGPILYLVFWA | 0.552 ± 0.34 |
| GHHLSVWRSNSCSCVWSITD | -0.184 ± 0.4 |
| GHLENPFDERASCWRITADG | 1.25 ± 0.74 |
| GHTVVSSWALNFEYGFQLGY | 0.05 ± 0.5 |
| GIGFNHVSHLVKENS | -0.192 ± 0.97 |
| GIHSLFMVAIYFAYWLRKWV | -0.877 ± 1.6 |
| GIISASSVNTQRWTSGTNTC | inactive |
| GIKFNWENLARVLESNVFF | 1.53 ± 0.46 |
| GILFVFFQYF | 1.95 ± 0.15 |
| GIRMRGVSDLSLLRM | 0.163 ± 0.77 |
| GIRMRSKNYGSWWFPLLYGE | 0.827 ± 0.84 |
| GIRPPGKCMGWYLHMKFQSS | -0.391 ± 0.59 |
| GISGLVLSYGADSGPGTWGK | -0.63 ± 0.42 |
| GIVGGDQYMLFNLYVGFSYP | 1.45 ± 0.15 |
| GIVRVKSTCERSPDSATYDL | -0.205 ± 0.91 |
| GIWIRVSLAMRVTTSRRLGN | 2.57 ± 0.17 |
| GIYNLHQFTCLFEAAAIACD | -0.478 ± 0.79 |
| GIYSFGLCVGDIS | -0.623 ± 0.34 |
| GKERCDRMNKTLFLTFSYII | -0.281 ± 0.71 |
| GKHSLSPVYLWYGNNY | 0.707 ± 0.52 |
| GKKAYALGMSYLESCL | 1.37 ± 0.73 |
| GKLSDINCLYSSDSLGCLGL | 0.815 ± 0.9 |
| GKMLFRGSGIRPCGALIGVK | -0.561 ± 1.1 |
| GKRLQ | -0.249 ± 1.2 |
| GKRSDIVLMLLIEMGHMLSQ | 3.1 ± 0.13 |
| GKTRK | -0.782 ± 1.7 |

| Substance | amyloid nucleation score |
| --- | --- |
| GLDCVRGNQWVNQGVL | 2.32 ± 0.15 |
| GLEDRNRWKVWFITLCRGIA | 0.71 ± 1.1 |
| GLETNNLARLVCGSRCFLSD | -0.894 ± 2.4 |
| GLFFNNKYA | 0.54 ± 0.84 |
| GLFTVNDV | 0.374 ± 0.36 |
| GLGLCRVE | -0.373 ± 0.38 |
| GLGTAYIGLCWHTIWHAAGV | 1.46 ± 0.16 |
| GLLGGIGRRRTMG | -0.643 ± 0.46 |
| GLLIGDT | 0.437 ± 0.48 |
| GLMLHCGGLCWLLVVV | -0.539 ± 0.41 |
| GLNSDGLWLLSLNTRKSRAH | -0.349 ± 1.1 |
| GLRTLEPYRYVIIMVPGQVA | -0.164 ± 0.68 |
| GLSTMQCVNICFWSYVTW | 1.37 ± 0.26 |
| GLSVFSCQFFFNSTAFFSVN | 6.061 ± 0.06 |
| GLSWGIFALDTRSPGILRSV | -0.436 ± 0.35 |
| GLTKYV | -0.462 ± 0.28 |
| GLVFWNIYCRNFYLL | 6.83 ± 0.078 |
| GLVLTIWHLRTAEERIVYRA | 1.58 ± 0.26 |
| GLVVIGRSCDDYESIMTRSM | 0.171 ± 0.41 |
| GLWHAC | inactive |
| GLYIFYLSNWLFHPRF | 0.339 ± 0.43 |
| GLYSTGNFDVGRSLCDHMGS | -0.492 ± 1.1 |
| GLYYSFRFYTFSVYRALRGS | -0.392 ± 1.1 |
| GMCPLNRNGGFGNGVVEGVV | 0.166 ± 1.6 |
| GMDCH | -0.175 ± 0.25 |
| GMLISTSIMHNES | 0.164 ± 0.4 |

| Substance | amyloid nucleation score |
| --- | --- |
| GMQIKYNLCSRKTLVENGIS | 3.48 ± 0.12 |
| GMSGYKKFCSGIWWSLNQCS | 0.408 ± 0.42 |
| GNICSTLAINVGLIFSKECV | inactive |
| GNLLRTSIDRLLYSWSTIVV | -0.187 ± 0.46 |
| GNLVCGCVVLQIMHIERGMA | 7.481 ± 0.046 |
| GNMSPFKNLTFAEQLDAPRD | 0.016 ± 1.2 |
| GNVIGGNMVVQWYSFCTVCV | 6.342 ± 0.062 |
| GNVSDYVVMIGVMVSLPCLI | -0.222 ± 0.56 |
| GNVYVKISVTVFADDYVLRV | 3.81 ± 0.11 |
| GNYSG | inactive |
| GNYSIARGLKNDKWCFFSSY | -0.234 ± 1.6 |
| GNYTS | -0.894 ± 0.59 |
| GPALTHTHS | 0.306 ± 0.63 |
| GPDINSCRSCFSWYIVWFLV | 0.318 ± 0.7 |
| GPSLGVIFKEIWFYYG | 0.541 ± 0.3 |
| GQAWCTLTCRGTGPSQLGWV | -0.508 ± 0.57 |
| GQDSGSSNVFSSCICNLHVF | 7.715 ± 0.046 |
| GQFEHGVGVQQSSGSTQRWL | -1.21 ± 2.4 |
| GQFSRSCGTVHNQSVYRRCL | 1.5 ± 0.48 |
| GQKVMIAHGTQETIHGGCCG | -0.275 ± 0.49 |
| GQNLGRSRLGNVYRGPCGNC | -0.095 ± 1.1 |
| GQQLCVIFYSTCDSYKMLSD | 3.26 ± 0.089 |
| GQSYRRNIMCTSFLWLGNRN | 1.05 ± 0.53 |
| GQTVNCNATYFSVTIVGIVG | 2.8 ± 0.13 |
| GRCLCGLVDDYFYNAYWVLP | -0.555 ± 0.35 |
| GRECLRCTFKMVGWVATEIA | -0.521 ± 0.71 |

| Substance | amyloid nucleation score |
| --- | --- |
| GRGQWQPAFTKLPYLILSVV | -0.152 ± 0.94 |
| GRGRKVYLVDLGSGL | -0.285 ± 0.53 |
| GRIYLVWVDSTCRRVCKTLV | 0.082 ± 0.29 |
| GRNTGFFHFLWLFRYVTLVM | -1.58 ± 1.7 |
| GRPFALRWLDLGLLTDDPKG | -0.164 ± 0.32 |
| GRSFYNCPPLRIHCLCIMEV | 0.557 ± 0.68 |
| GRSLY | -0.413 ± 0.46 |
| GSCGYSTVVDVVCYLDLLLI | 0.131 ± 0.43 |
| GSELGIKRTLSLFICLWIIG | -0.731 ± 0.36 |
| GSFYSGI | 1.6 ± 0.76 |
| GSGKCVPGDTELAILGLKR | 0.299 ± 0.7 |
| GSIERFTFISVYYRLTPLSG | -0.035 ± 0.54 |
| GSKGMGSERQVECFTKI | -0.505 ± 0.37 |
| GSLLLMGRTMDVYQNRHFFH | 0.651 ± 0.28 |
| GSLPIRNTFTWGEL | inactive |
| GSNDPSVLTAVVLMLLKHRG | 2.04 ± 0.35 |
| GSNGMRGLRWGL | -0.485 ± 0.31 |
| GSRSLLQR | -1.06 ± 1.2 |
| GSRYHEECRWTCREAPTDAR | -1.07 ± 1.6 |
| GSVCRCSDAPVSFRVGNSVG | -0.078 ± 0.27 |
| GSVLKLYRGITHSRNERRGP | -0.171 ± 1.1 |
| GSWATVWVVKDPEVADCCGL | -1.53 ± 1.6 |
| GSWNALRLRCVNVVRTGVMN | -0.496 ± 0.59 |
| GSYGLDGILDQWTPLHSLGG | 0.64 ± 0.46 |
| GSYRLKCCTYLVGKY | 1.73 ± 0.28 |
| GTCYGCLLILVCSLFGSTTG | 1.12 ± 0.66 |

| Substance | amyloid nucleation score |
| --- | --- |
| GTNFS | 0.498 ± 0.97 |
| GTRVR | 1.51 ± 0.48 |
| GTSSYMV | -0.01 ± 0.23 |
| GTVSDGMSVIRVKGMRWSDY | 1.13 ± 0.73 |
| GTYFSGIVVVFLVGVLAR | -0.207 ± 0.49 |
| GVDGYDLRGLSWEVAKEFKS | 0.73 ± 0.67 |
| GVGIFAIYWFTMPHVRPRVI | -1.13 ± 1 |
| GVGVLLSYSELFDSTIEGPT | 0.664 ± 0.59 |
| GVISAGYFAGYETKLLLKGD | 0.983 ± 0.97 |
| GVKFNSDMSCQFRRVLVEIA | -0.057 ± 1.7 |
| GVKSQYALNKLGCGELWLRL | 0.364 ± 0.28 |
| GVMGYFVC | -0.405 ± 0.27 |
| GVMRKNMNKAWFTRDIDSF | 0.752 ± 0.41 |
| GVRETHLPSMLRRTALRFTF | 0.026 ± 0.36 |
| GVRMLGFVRV | 0.261 ± 0.2 |
| GVVACLFFWVRAFFYR | inactive |
| GVVSKQSYVRITLGTGPSGE | 0.476 ± 1.2 |
| GVVTLFTEYSSEPCRCGFRQ | -0.21 ± 0.53 |
| GVWGQFQVSILWRHKCDLSG | inactive |
| GVYSGVVSRSL | -0.21 ± 0.34 |
| GWHLHFC | 0.492 ± 0.22 |
| GWMNCHNSTWRVGQALSSSR | 0.282 ± 0.48 |

— the supplement of paper PMC12042874
